Measurements as given in publication PMC6628420.

Biological target: CD11b, cellular receptor of LukAB, on PMNs (HL-60 cells differentiated with DMSO) (human (endogenous in HL-60)) (UniProt P11215)

## LukAB heterodimer LukA D39A / LukB R23E (complex)
  reversal of the toxicity of 0.42 nM LukABWT on PMNs by the mutant (0.4 pM-13 nM), set up as competition with LukABWT for receptor binding; mutant/WT molar ratio at 50% reversal (mutant/WT molar ratio): 0.17

## LukAB heterodimer LukA D39R / LukB R23E (complex)
  reversal of the toxicity of 0.42 nM LukABWT on PMNs by the mutant (0.4 pM-13 nM), set up as competition with LukABWT for receptor binding; mutant/WT molar ratio at 50% reversal (mutant/WT molar ratio): > 30

## LukAB heterodimer LukA wild type / LukB K12A/K19A/R23A (complex)
  reversal of the toxicity of 0.42 nM LukABWT on PMNs by the mutant (0.4 pM-13 nM), set up as competition with LukABWT for receptor binding; mutant/WT molar ratio at 50% reversal (mutant/WT molar ratio): > 30

## LukAB heterodimer LukA wild type / LukB R23E (complex)
  reversal of the toxicity of 0.42 nM LukABWT on PMNs by the mutant (0.4 pM-13 nM), set up as competition with LukABWT for receptor binding; mutant/WT molar ratio at 50% reversal (mutant/WT molar ratio): 0.64

## LukAB heterodimer LukA wild type / LukB with the N-terminal 30 residues of HlgB (complex)
  reversal of the toxicity of 0.42 nM LukABWT on PMNs by the mutant (0.4 pM-13 nM), set up as competition with LukABWT for receptor binding; mutant/WT molar ratio at 50% reversal (mutant/WT molar ratio): 0.18
